Source: patent publication US9284543B2, “Neutral active soluble truncated PH20 polypeptides and uses thereof” (Halozyme, Inc., priority 2008, dated 2016)

B1: SPAM1-VASL: full length human PH20, precursor 509 aa (SEQ ID NO:1), mature 474 aa (SEQ ID NO:108) (protein, listed as Homo sapiens)
chain: MGVLKFKHIFFRSFVKSSGVSQIVFTFLLIPCCLTLNFRAPPVIPNVPFLWAWNAPSEFCLGKFDEPLDMSLFSFIGSPRINATGQGVTIFYVDRLGYYPYIDSITGVTVNGGIPQKISLQDHLDKAKKDITFYMPVDNLGMAVIDWEEWRPTWARNWKPKDVYKNRSIELVQQQNVQLSLTEATEKAKQEFEKAGKDFLVETIKLGKLLRPNHLWGYYLFPDCYNHHYKKPGYNGSCFNVEIKRNDDLSWLWNESTALYPSIYLNTQQSPVAATLYVRNRVREAIRVSKIPDAKSPLPVFAYTRIVFTDQVLKFLSQDELVYTFGETVALGASGIVIWGTLSIMRSMKSCLLLDNYMETILNPYIINVTLAAKMCSQVLCQEQGVCIRKNWNSSDYLHLNPDNFAIQLEKGGKFTVRGKPTLEDLEQFSEKFYCSCYSTLSCKEKADVKDTDAVDVCIADGVCIDAFLKPPMETEEPQIFYNASPSTLSATMFIVSILFLIISSVASL
modifications: Human PH20 cDNA encoding amino acids 1-509
B2: SPAM1-SSVA: C-terminally truncated human PH20, precursor 507 aa (SEQ ID NO:3), mature 472 aa (SEQ ID NO:55) (protein, listed as Homo sapiens)
chain 1: MGVLKFKHIFFRSFVKSSGVSQIVFTFLLIPCCLTLNFRAPPVIPNVPFLWAWNAPSEFCLGKFDEPLDMSLFSFIGSPRINATGQGVTIFYVDRLGYYPYIDSITGVTVNGGIPQKISLQDHLDKAKKDITFYMPVDNLGMAVIDWEEWRPTWARNWKPKDVYKNRSIELVQQQNVQLSLTEATEKAKQEFEKAGKDFLVETIKLGKLLRPNHLWGYYLFPDCYNHHYKKPGYNGSCFNVEIKRNDDLSWLWNESTALYPSIYLNTQQSPVAATLYVRNRVREAIRVSKIPDAKSPLPVFAYTRIVFTDQVLKFLSQDELVYTFGETVALGASGIVIWGTLSIMRSMKSCLLLDNYMETILNPYIINVTLAAKMCSQVLCQEQGVCIRKNWNSSDYLHLNPDNFAIQLEKGGKFTVRGKPTLEDLEQFSEKFYCSCYSTLSCKEKADVKDTDAVDVCIADGVCIDAFLKPPMETEEPQIFYNASPSTLSATMFIVSILFLIISSVA
chain 2: LNFRAPPVIPNVPFLWAWNAPSEFCLGKFDEPLDMSLFSFIGSPRINATGQGVTIFYVDRLGYYPYIDSITGVTVNGGIPQKISLQDHLDKAKKDITFYMPVDNLGMAVIDWEEWRPTWARNWKPKDVYKNRSIELVQQQNVQLSLTEATEKAKQEFEKAGKDFLVETIKLGKLLRPNHLWGYYLFPDCYNHHYKKPGYNGSCFNVEIKRNDDLSWLWNESTALYPSIYLNTQQSPVAATLYVRNRVREAIRVSKIPDAKSPLPVFAYTRIVFTDQVLKFLSQDELVYTFGETVALGASGIVIWGTLSIMRSMKSCLLLDNYMETILNPYIINVTLAAKMCSQVLCQEQGVCIRKNWNSSDYLHLNPDNFAIQLEKGGKFTVRGKPTLEDLEQFSEKFYCSCYSTLSCKEKADVKDTDAVDVCIADGVCIDAFLKPPMETEEPQIFYNASPSTLSATMFIVSILFLIISSVA
modifications: HuPH20 precursor 1-507; mature HuPH20 36-507
B3: SPAM1-IISS: C-terminally truncated human PH20, precursor 505 aa (SEQ ID NO:4), mature 470 aa (SEQ ID NO:56) (protein, listed as Homo sapiens)
chain 1: MGVLKFKHIFFRSFVKSSGVSQIVFTFLLIPCCLTLNFRAPPVIPNVPFLWAWNAPSEFCLGKFDEPLDMSLFSFIGSPRINATGQGVTIFYVDRLGYYPYIDSITGVTVNGGIPQKISLQDHLDKAKKDITFYMPVDNLGMAVIDWEEWRPTWARNWKPKDVYKNRSIELVQQQNVQLSLTEATEKAKQEFEKAGKDFLVETIKLGKLLRPNHLWGYYLFPDCYNHHYKKPGYNGSCFNVEIKRNDDLSWLWNESTALYPSIYLNTQQSPVAATLYVRNRVREAIRVSKIPDAKSPLPVFAYTRIVFTDQVLKFLSQDELVYTFGETVALGASGIVIWGTLSIMRSMKSCLLLDNYMETILNPYIINVTLAAKMCSQVLCQEQGVCIRKNWNSSDYLHLNPDNFAIQLEKGGKFTVRGKPTLEDLEQFSEKFYCSCYSTLSCKEKADVKDTDAVDVCIADGVCIDAFLKPPMETEEPQIFYNASPSTLSATMFIVSILFLIISS
chain 2: LNFRAPPVIPNVPFLWAWNAPSEFCLGKFDEPLDMSLFSFIGSPRINATGQGVTIFYVDRLGYYPYIDSITGVTVNGGIPQKISLQDHLDKAKKDITFYMPVDNLGMAVIDWEEWRPTWARNWKPKDVYKNRSIELVQQQNVQLSLTEATEKAKQEFEKAGKDFLVETIKLGKLLRPNHLWGYYLFPDCYNHHYKKPGYNGSCFNVEIKRNDDLSWLWNESTALYPSIYLNTQQSPVAATLYVRNRVREAIRVSKIPDAKSPLPVFAYTRIVFTDQVLKFLSQDELVYTFGETVALGASGIVIWGTLSIMRSMKSCLLLDNYMETILNPYIINVTLAAKMCSQVLCQEQGVCIRKNWNSSDYLHLNPDNFAIQLEKGGKFTVRGKPTLEDLEQFSEKFYCSCYSTLSCKEKADVKDTDAVDVCIADGVCIDAFLKPPMETEEPQIFYNASPSTLSATMFIVSILFLIISS
modifications: HuPH20 precursor 1-505; mature HuPH20 36-505
B4: SPAM1-FLII: C-terminally truncated human PH20, precursor 503 aa (SEQ ID NO:5), mature 468 aa (SEQ ID NO:57) (protein, listed as Homo sapiens)
chain 1: MGVLKFKHIFFRSFVKSSGVSQIVFTFLLIPCCLTLNFRAPPVIPNVPFLWAWNAPSEFCLGKFDEPLDMSLFSFIGSPRINATGQGVTIFYVDRLGYYPYIDSITGVTVNGGIPQKISLQDHLDKAKKDITFYMPVDNLGMAVIDWEEWRPTWARNWKPKDVYKNRSIELVQQQNVQLSLTEATEKAKQEFEKAGKDFLVETIKLGKLLRPNHLWGYYLFPDCYNHHYKKPGYNGSCFNVEIKRNDDLSWLWNESTALYPSIYLNTQQSPVAATLYVRNRVREAIRVSKIPDAKSPLPVFAYTRIVFTDQVLKFLSQDELVYTFGETVALGASGIVIWGTLSIMRSMKSCLLLDNYMETILNPYIINVTLAAKMCSQVLCQEQGVCIRKNWNSSDYLHLNPDNFAIQLEKGGKFTVRGKPTLEDLEQFSEKFYCSCYSTLSCKEKADVKDTDAVDVCIADGVCIDAFLKPPMETEEPQIFYNASPSTLSATMFIVSILFLII
chain 2: LNFRAPPVIPNVPFLWAWNAPSEFCLGKFDEPLDMSLFSFIGSPRINATGQGVTIFYVDRLGYYPYIDSITGVTVNGGIPQKISLQDHLDKAKKDITFYMPVDNLGMAVIDWEEWRPTWARNWKPKDVYKNRSIELVQQQNVQLSLTEATEKAKQEFEKAGKDFLVETIKLGKLLRPNHLWGYYLFPDCYNHHYKKPGYNGSCFNVEIKRNDDLSWLWNESTALYPSIYLNTQQSPVAATLYVRNRVREAIRVSKIPDAKSPLPVFAYTRIVFTDQVLKFLSQDELVYTFGETVALGASGIVIWGTLSIMRSMKSCLLLDNYMETILNPYIINVTLAAKMCSQVLCQEQGVCIRKNWNSSDYLHLNPDNFAIQLEKGGKFTVRGKPTLEDLEQFSEKFYCSCYSTLSCKEKADVKDTDAVDVCIADGVCIDAFLKPPMETEEPQIFYNASPSTLSATMFIVSILFLII
modifications: HuPH20 precursor 1-503; mature HuPH20 36-503

Legend:
[1] = Microtiter hyaluronidase activity assay with biotinylated-hyaluronic acid; type: biochemical; settings: 72 hour post transfection supernatant
[2] = Triton X-114 partition assay; type: physicochemical; settings: partition into aqueous phase of Triton X-114 at 37° C.; listed as Full length PH20
Experimental: Solubility of a hyaluronidase can be determined by any method known to one of the skill in the art. One method for determining solubility is by detergent partitioning. […] For example, the solubility of the PH20 polypeptides described herein is assessed as described in Example 4. Membrane-anchored hyaluronidases, such as lipid-anchored hyaluronidases, including GPI-anchored hyaluronidases, will partition into the detergent-rich phase, but will partition into the detergent-poor or aqueous phase following treatment with Phospholipase C. Phospholipase C is an enzyme that cleaves the […] found in GPI-anchored proteins. Treatment with PLC will cause release of GPI-linked proteins from the outer cell membrane.
The samples were heated to 37° C. for 3 minutes to induce phase separation and centrifuged for 3 min at 4000 g at room temperature. Aqueous and detergent phases were removed for SDS-PAGE analysis and Western blotting. Rabbit anti-PH20 IgG (0.5 μg/mL) was used as the primary antibody and HRP-conjugated goat anti-Rabbit IgG (0.1 ng/mL, Cat#DC03L, EMD) was used as the secondary antibody. Full length human PH20, which partitions strongly into the detergent phase, was used as a control.

CHO-S cells = assay: PI-PLC treatment of expressing cells, Western blot of media and cells; type: cell-based, Chinese Hamster; settings: cells incubated with PI-PLC for 2 hours
Experimental: In this example, following transient expression, as described in Example 2 above, the media and cells were harvested separately and analyzed for PH20 expression and solublility by Western blot analysis. Solubility of the C-terminus truncation mutants was determined by examining whether the expressed protein was present in the growth media or in the cells. […] Cells expressing these mutants were treated with phosphoinositol-phospholipase C (PI-PLC), which cleaves the GPI-anchor allowing the release of soluble protein into the media, and the presence of PH20 in the resulting media and cells was determined by Western blot analysis.
Following expression of rHuPH20 in CHO—S cells for 72 hours, as described in Example 2A above, the media and cells were harvested separately. The cells were washed with serum-free media followed by the addition of 2 mL serum-free media per well. PI-PLC (0.5 units/well) was added to each well and the cells were incubated in the PI-PLC for 2 hours. The resultant media and cells were analyzed by Western blot analysis as described above.
Two plates each of rHuPH20 expressing CHO—S cells, one for treatment with PI-PLC and one without treatment with PI-PLC, were prepared for each C-terminus mutant as described in Example 2B above. Following expression for 48 hours, for cells untreated with PI-PLC, the media and cells were harvested separately. The harvested media was spun down, concentrated to a volume of 10 mL, and buffer exchanged into PBS using an Amicon 30 kD MWCO concentrator. The cells were rinsed with cold PBS and scraped and resuspended in 1.2 mL PBS with protease inhibitor Set III (Cat No. 539134, Calbiochem). The resuspended cells were briefly sonicated to prepare whole-cell extract. For PI-PLC treatment of cells, following expression for 48 hours, the untreated media was harvested, as described above. The cells were rinsed once with fresh CD DG44 medium with Glutamax-1, and the media was replaced with 12 mL fresh detergent free CD DG44 medium supplemented with Glutamax-1 with 3.0 units PI-PLC per dish, and the cells were incubated for 2 hours at 37° C. with 5% CO2. After 2 hours, the PI-PLC media and cells were harvested separately, as described above. The resultant untreated media and cells, and PI-PLC treated media and cells, were analyzed by Western blot analysis as described above.

Molecule | pH 5.5 Activity ([1]; Table 6) [Units/ml] | pH 7.4 Activity ([1]; Table 6) [Units/ml] | Soluble [2] | Expressed in Media Following Addition of PI-PLC (CHO-S cells) | pH 5.5 Activity ([1]; Table 6A) [Units/ml] | pH 7.4 Activity ([1]; Table 6A) [Units/ml]
B1 | 0.891 | 1.8045 | insoluble | YES | – | –
B2 | 1.125 | 1.4715 | – | YES | 1.256 | 1.782
B3 | 0.837 | 1.458 | – | YES | 0.932 | 1.863
B4 | 0.6345 | 0.9405 | – | YES | 0.648 | 1.094
